Experimental data as given in the supplement of paper PMC5998384.

Assays:
HeLa Kyoto [1] = experiment: solubility in G1/S (NP-40 vs SDS abundance) (log2 ratio); higher = more soluble; details: cell cycle stage: G1/S
HeLa Kyoto [2] = experiment: solubility change mitosis vs G1/S (difference of NP-40 vs SDS log2 ratios) (log2 ratio difference); higher = more soluble in mitosis
HeLa Kyoto [3] = experiment: thermal stability score vs G1/S (z-score of summed log2 fold changes over temperatures); higher = more thermally stable than in G1/S
HeLa Kyoto [4] = experiment: melting temperature (median over replicates), in situ; higher = more thermally stable
[5] = cell cycle stage: early G1 (4.5 h after nocodazole release)
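Wherever melting temperature (median over replicates), in situ is given: HeLa Kyoto cells synchronized by double thymidine or nocodazole block, proteins quantified by TMT10plex mass spectrometry, three independent biological replicates.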
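Wherever solubility change mitosis vs G1/S (difference of NP-40 vs SDS log2 ratios) is given: synchronized HeLa Kyoto cells (double thymidine block for G1/S, nocodazole release for mitosis), protein amounts in NP-40 versus SDS lysates quantified by mass spectrometry, three biological replicates.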
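Wherever solubility in G1/S (NP-40 vs SDS abundance) is given: HeLa Kyoto cells arrested at G1/S by double thymidine block, proteins quantified by TMT10plex mass spectrometry in mild NP-40 versus SDS extracts, three biological replicates.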
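Wherever thermal stability score vs G1/S (z-score of summed log2 fold changes over temperatures) is given: synchronized HeLa Kyoto cells, proteins quantified by TMT10plex mass spectrometry, three biological replicates, mitosis taken 0.5 h after nocodazole release, G1/S directly after double thymidine block.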

STAT2, sequence (chain, as listed by the source): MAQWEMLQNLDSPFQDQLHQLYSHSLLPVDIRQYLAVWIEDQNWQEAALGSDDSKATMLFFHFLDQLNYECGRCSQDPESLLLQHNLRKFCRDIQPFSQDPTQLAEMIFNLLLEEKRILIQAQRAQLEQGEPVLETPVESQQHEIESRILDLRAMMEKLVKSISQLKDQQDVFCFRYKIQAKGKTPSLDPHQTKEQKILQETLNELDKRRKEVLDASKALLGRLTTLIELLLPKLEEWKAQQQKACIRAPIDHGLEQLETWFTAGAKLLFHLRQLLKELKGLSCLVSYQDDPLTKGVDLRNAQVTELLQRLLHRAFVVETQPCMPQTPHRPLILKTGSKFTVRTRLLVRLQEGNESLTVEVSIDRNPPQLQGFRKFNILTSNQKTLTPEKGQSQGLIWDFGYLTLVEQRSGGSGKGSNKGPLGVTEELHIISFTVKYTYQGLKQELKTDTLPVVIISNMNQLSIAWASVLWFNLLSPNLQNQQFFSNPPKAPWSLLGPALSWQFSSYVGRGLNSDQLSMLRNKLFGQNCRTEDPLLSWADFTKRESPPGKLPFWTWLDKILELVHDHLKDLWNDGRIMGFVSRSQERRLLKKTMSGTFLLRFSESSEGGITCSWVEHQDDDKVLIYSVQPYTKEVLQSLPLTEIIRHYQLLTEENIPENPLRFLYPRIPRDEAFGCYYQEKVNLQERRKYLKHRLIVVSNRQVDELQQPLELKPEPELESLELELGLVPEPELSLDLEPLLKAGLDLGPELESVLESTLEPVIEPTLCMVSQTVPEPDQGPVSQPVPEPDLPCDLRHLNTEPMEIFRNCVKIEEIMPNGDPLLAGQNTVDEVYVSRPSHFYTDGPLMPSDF
DENND4A, sequence (chain, as listed by the source): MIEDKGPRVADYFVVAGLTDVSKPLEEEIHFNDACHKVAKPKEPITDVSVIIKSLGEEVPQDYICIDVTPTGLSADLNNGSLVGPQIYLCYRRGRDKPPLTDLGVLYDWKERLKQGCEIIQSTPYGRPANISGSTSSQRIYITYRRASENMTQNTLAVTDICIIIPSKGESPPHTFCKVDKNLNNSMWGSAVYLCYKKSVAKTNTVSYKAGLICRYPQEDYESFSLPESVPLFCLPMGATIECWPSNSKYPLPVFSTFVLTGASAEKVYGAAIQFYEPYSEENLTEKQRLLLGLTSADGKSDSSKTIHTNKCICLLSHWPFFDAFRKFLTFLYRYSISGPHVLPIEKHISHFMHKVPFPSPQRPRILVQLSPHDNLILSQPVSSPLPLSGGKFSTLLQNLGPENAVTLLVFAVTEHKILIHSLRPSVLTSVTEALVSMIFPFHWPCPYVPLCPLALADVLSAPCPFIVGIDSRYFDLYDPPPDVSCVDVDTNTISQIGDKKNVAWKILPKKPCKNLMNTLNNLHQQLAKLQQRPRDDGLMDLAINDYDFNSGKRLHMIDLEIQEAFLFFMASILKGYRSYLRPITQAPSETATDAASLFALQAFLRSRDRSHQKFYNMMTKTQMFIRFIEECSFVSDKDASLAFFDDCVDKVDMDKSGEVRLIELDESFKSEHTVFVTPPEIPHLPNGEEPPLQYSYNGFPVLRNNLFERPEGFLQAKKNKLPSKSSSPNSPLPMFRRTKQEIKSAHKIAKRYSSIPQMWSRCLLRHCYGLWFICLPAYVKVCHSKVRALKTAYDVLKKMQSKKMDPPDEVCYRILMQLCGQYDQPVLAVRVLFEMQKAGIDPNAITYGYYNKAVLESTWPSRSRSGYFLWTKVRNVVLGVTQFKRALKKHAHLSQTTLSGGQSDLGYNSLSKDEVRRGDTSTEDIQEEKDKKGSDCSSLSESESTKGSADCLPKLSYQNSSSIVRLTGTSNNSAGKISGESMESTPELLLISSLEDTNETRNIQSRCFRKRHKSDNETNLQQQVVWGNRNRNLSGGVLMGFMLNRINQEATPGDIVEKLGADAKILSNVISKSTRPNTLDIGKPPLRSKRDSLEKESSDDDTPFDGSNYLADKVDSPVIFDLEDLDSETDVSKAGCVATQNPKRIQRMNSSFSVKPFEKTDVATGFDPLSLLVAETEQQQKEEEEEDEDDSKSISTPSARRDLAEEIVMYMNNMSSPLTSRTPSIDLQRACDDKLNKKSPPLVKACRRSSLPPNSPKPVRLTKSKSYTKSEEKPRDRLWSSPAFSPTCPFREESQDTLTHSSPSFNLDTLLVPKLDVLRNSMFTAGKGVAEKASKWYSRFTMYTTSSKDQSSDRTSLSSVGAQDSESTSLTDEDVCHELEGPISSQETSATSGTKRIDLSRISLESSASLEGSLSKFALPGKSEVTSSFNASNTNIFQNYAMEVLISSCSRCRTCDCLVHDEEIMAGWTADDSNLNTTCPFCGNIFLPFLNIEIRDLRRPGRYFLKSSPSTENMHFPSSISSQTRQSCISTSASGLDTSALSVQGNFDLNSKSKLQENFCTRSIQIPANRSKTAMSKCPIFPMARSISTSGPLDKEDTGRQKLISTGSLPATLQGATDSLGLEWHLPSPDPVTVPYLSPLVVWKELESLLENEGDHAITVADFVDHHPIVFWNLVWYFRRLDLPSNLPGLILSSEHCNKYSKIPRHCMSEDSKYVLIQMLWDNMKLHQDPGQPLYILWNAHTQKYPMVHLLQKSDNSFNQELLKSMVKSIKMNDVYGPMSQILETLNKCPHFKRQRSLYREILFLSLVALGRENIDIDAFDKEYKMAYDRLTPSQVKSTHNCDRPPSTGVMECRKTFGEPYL
DGKA, sequence (chain, as listed by the source): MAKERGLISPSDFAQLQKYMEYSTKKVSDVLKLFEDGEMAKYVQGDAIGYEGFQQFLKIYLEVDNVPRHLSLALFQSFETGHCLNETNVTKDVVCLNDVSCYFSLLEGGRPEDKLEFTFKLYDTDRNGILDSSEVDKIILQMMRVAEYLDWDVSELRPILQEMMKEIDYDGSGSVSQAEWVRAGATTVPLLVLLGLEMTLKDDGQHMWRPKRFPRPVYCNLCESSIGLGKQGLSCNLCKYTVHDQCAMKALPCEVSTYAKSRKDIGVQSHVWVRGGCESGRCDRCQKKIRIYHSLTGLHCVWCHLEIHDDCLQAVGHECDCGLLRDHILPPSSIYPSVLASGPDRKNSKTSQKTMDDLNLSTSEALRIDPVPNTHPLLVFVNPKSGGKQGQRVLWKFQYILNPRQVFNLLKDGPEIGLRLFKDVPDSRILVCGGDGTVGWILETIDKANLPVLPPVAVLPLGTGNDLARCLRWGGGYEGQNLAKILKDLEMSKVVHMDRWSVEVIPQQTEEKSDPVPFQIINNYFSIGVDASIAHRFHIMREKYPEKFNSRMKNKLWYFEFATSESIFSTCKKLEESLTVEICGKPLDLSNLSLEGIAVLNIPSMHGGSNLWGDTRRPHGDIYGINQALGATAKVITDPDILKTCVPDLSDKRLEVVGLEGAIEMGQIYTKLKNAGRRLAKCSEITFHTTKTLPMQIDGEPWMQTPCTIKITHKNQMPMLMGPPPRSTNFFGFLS
TAF6, sequence (chain, as listed by the source): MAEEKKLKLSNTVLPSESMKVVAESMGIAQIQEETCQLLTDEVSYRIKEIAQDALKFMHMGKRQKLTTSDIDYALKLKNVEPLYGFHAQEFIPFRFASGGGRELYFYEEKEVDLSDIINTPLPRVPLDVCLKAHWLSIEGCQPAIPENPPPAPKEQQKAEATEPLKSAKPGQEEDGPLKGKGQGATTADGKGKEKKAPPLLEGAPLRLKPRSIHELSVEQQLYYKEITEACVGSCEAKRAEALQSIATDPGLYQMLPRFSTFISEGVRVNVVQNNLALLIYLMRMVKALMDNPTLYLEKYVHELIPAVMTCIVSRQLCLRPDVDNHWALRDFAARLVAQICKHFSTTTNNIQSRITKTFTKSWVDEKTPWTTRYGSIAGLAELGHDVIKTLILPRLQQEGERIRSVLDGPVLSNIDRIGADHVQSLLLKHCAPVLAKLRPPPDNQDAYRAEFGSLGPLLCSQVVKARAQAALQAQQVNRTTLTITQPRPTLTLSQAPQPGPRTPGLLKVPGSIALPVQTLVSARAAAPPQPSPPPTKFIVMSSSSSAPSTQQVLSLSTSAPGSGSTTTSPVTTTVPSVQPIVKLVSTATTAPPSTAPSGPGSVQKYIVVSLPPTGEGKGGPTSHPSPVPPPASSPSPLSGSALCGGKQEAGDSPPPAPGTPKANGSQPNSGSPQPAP

Substance	solubility in G1/S (log2) (HeLa Kyoto [1])	solubility change mitosis (log2) (HeLa Kyoto [2])	thermal stability score (HeLa Kyoto [3]; [5])	thermal stability score (HeLa Kyoto [3]; cell cycle stage: mitosis)	melting temperature (HeLa Kyoto [4]; cell cycle stage: G1/S)	melting temperature (HeLa Kyoto [4]; cell cycle stage: mitosis)
DENND4A	0.0407	-0.246	-0.12	-0.608	–	–
DGKA	-0.0832	-0.157	0.0904	0.484	–	–
ESPL1	-0.00542	-0.204	0.555	2.16	–	–
LAMA3	-0.331	0.0773	-0.604	-0.145	–	–
MAAAAVDSAMEVVPALAEEAAPEVAGLSCLVNLPGEVLEYILCCGSLTAADIGRVSSTCRRLRELCQSSGKVWKEQFRVRWPSLMKHYSPTDYVNWLEEYKVRQKAGLEARKIVASFSKRFFSEHVPCNGFSDIENLEGPEIFFEDELVCILNMEGRKALTWKYYAKKILYYLRQQKILNNLKAFLQQPDDYESYLEGAVYIDQYCNPLSDISLKDIQAQIDSIVELVCKTLRGINSRHPSLAFKAGESSMIMEIELQSQVLDAMNYVLYDQLKFKGNRMDYYNALNLYMHQVLIRRTGIPISMSLLYLTIARQLGVPLEPVNFPSHFLLRWCQGAEGATLDIFDYIYIDAFGKGKQLTVKECEYLIGQHVTAALYGVVNVKKVLQRMVGNLLSLGKREGIDQSYQLLRDSLDLYLAMYPDQVQLLLLQARLYFHLGIWPEKSFCLVLKVLDILQHIQTLDPGQHGAVGYLVQHTLEHIERKKEEVGVEVKLRSDEKHRDVCYSIGLIMKHKRYGYNCVIYGWDPTCMMGHEWIRNMNVHSLPHGHHQPFYNVLVEDGSCRYAAQENLEYNVEPQEISHPDVGRYFSEFTGTHYIPNAELEIRYPEDLEFVYETVQNIYSAKKENIDE [FBXO21]	-0.126	-0.0785	0.858	1.12	–	–
MAALTIATGTGNWFSALALGVTLLKCLLIPTYHSTDFEVHRNWLAITHSLPISQWYYEATSEWTLDYPPFFAWFEYILSHVAKYFDQEMLNVHNLNYSSSRTLLFQRFSVIFMDVLFVYAVRECCKCIDGKKVGKELTEKPKFILSVLLLWNFGLLIVDHIHFQYNGFLFGLMLLSIARLFQKRHMEGAFLFAVLLHFKHIYLYVAPAYGVYLLRSYCFTANKPDGSIRWKSFSFVRVISLGLVVFLVSALSLGPFLALNQLPQVFSRLFPFKRGLCHAYWAPNFWALYNALDKVLSVIGLKLKFLDPNNIPKASMTSGLVQQFQHTVLPSVTPLATLICTLIAILPSIFCLWFKPQGPRGFLRCLTLCALSSFMFGWHVHEKAILLAILPMSLLSVGKAGDASIFLILTTTGHYSLFPLLFTAPELPIKILLMLLFTIYSISSLKTLFRKEKPLFNWMETFYLLGLGPLEVCCEFVFPFTSWKVKYPFIPLLLTSVYCAVGITYAWFKLYVSVLIDSAIGKTKKQ [ALG8]	-0.668	-0.131	-0.785	-1.28	–	–
MAASGVEKSSKKKTEKKLAAREEAKLLAGFMGVMNNMRKQKTLCDVILMVQERKIPAHRVVLAAASHFFNLMFTTNMLESKSFEVELKDAEPDIIEQLVEFAYTARISVNSNNVQSLLDAANQYQIEPVKKMCVDFLKEQVDASNCLGISVLAECLDCPELKATADDFIHQHFTEVYKTDEFLQLDVKRVTHLLNQDTLTVRAEDQVYDAAVRWLKYDEPNRQPFMVDILAKVRFPLISKNFLSKTVQAEPLIQDNPECLKMVISGMRYHLLSPEDREELVDGTRPRRKKHDYRIALFGGSQPQSCRYFNPKDYSWTDIRCPFEKRRDAACVFWDNVVYILGGSQLFPIKRMDCYNVVKDSWYSKLGPPTPRDSLAACAAEGKIYTSGGSEVGNSALYLFECYDTRTESWHTKPSMLTQRCSHGMVEANGLIYVCGGSLGNNVSGRVLNSCEVYDPATETWTELCPMIEARKNHGLVFVKDKIFAVGGQNGLGGLDNVEYYDIKLNEWKMVSPMPWKGVTVKCAAVGSIVYVLAGFQGVGRLGHILEYNTETDKWVANSKVRAFPVTSCLICVVDTCGANEETLET [KLHL7]	-0.622	0.322	0.201	-0.116	–	–
MAASKTQGAVARMQEDRDGSCSTVGGVGYGDSKDCILEPLSLPESPGGTTTLEGSPSVPCIFCEEHFPVAEQDKLLKHMIIEHKIVIADVKLVADFQRYILYWRKRFTEQPITDFCSVIRINSTAPFEEQENYFLLCDVLPEDRILREELQKQRLREILEQQQQERNDTNFHGVCMFCNEEFLGNRSVILNHMAREHAFNIGLPDNIVNCNEFLCTLQKKLDNLQCLYCEKTFRDKNTLKDHMRKKQHRKINPKNREYDRFYVINYLELGKSWEEVQLEDDRELLDHQEDDWSDWEEHPASAVCLFCEKQAETIEKLYVHMEDAHEFDLLKIKSELGLNFYQQVKLVNFIRRQVHQCRCYGCHVKFKSKADLRTHMEETKHTSLLPDRKTWDQLEYYFPTYENDTLLCTLSDSESDLTAQEQNENVPIISEDTSKLYALKQSSILNQLLL [ZNF277]	-0.685	0.173	0.293	1.38	–	–
MAATAVAAAVAGTESAQGPPGPAASLELWLNKATDPSMSEQDWSAIQNFCEQVNTDPNGPTHAPWLLAHKIQSPQEKEALYALTVLEMCMNHCGEKFHSEVAKFRFLNELIKVLSPKYLGSWATGKVKGRVIEILFSWTVWFPEDIKIRDAYQMLKKQGIIKQDPKLPVDKILPPPSPWPKSSIFDADEEKSKLLTRLLKSNHPEDLQAANRLIKNLVKEEQEKSEKVSKRVSAVEEVRSHVKVLQEMLSMYRRPGQAPPDQEALQVVYERCEKLRPTLFRLASDTTDDDDALAEILQANDLLTQGVLLYKQVMEGRVTFGNRVTSSLGDIPVSRVFQNPAGCMKTCPLIDLEVDNGPAQMGTVVPSLLHQDLAALGISDAPVTGMVSGQNCCEEKRNPSSSTLPGGGVQNPSADRNLLDLLSAQPAPCPLNYVSQKSVPKEVPPGTKSSPGWSWEAGPLAPSPSSQNTPLAQVFVPLESVKPSSLPPLIVYDRNGFRILLHFSQTGAPGHPEVQVLLLTMMSTAPQPVWDIMFQVAVPKSMRVKLQPASSSKLPAFSPLMPPAVISQMLLLDNPHKEPIRLRYKLTFNQGGQPFSEVGEVKDFPDLAVLGAA [GGA2]	0.448	-0.32	0.693	1.05	–	–
MAAVAAEAAATAASPGEGGAGEAEPEMEPIPGSEAGTDPLPVTATEASVPDGETDGQQSAPQADEPPLPPPPPPPGELARSPEAVGPELEAEEKLSVRVAESAAAAPQGGPELPPSPASPPEQPPAPEEREEPPLPQPVAPALVPPAGGDSTVSQLIPGSEVRVTLDHIIEDALVVSFRFGEKLFSGVLMDLSKRFGPHGIPVTVFPKREYKDKPEAMPLQSNTFQEGTEVKCEANGAVPDDPSPVPHPELSLAESLWTSKPPPLFHEGAPYPPPLFIRDTYNQSIPQPPPRKIKRPKRKMYREEPTSIMNAIKLRPRQVLCDKCKNSVVAEKKEIRKGSSATDSSKYEDKKRRNESVTTVNKKLKTDHKVDGKNQNESQKRNAVVKVSNIAHSRGRVVKVSAQANTSKAQLSTKKVLQSKNMDHAKAREVLKIAKEKAQKKQNETSTSKNAHSKVHFTRRYQNPSSGSLPPRVRLKPQRYRNEENDSSLKTGLEKMRSGKMAPKPQSRCTSTRSAGEAPSENQSPSKGPEEASSEVQDTNEVHVPGDQDEPQTLGKKGSKNNISVYMTLNQKKSDSSSASVCSIDSTDDLKSSNSECSSSESFDFPPGSMHAPSTSSTSSSSKEEKKLSNSLKMKVFSKNVSKCVTPDGRTICVGDIVWAKIYGFPWWPARILTITVSRKDNGLLVRQEARISWFGSPTTSFLALSQLSPFLENFQSRFNKKRKGLYRKAITEAAKAAKQLTPEVRALLTQFET [PWWP2A]	-0.7	0.43	1.31	1.07	–	–
MTTSSIRRQMKNIVNNYSEAEIKVREATSNDPWGPSSSLMTEIADLTYNVVAFSEIMSMVWKRLNDHGKNWRHVYKALTLLDYLIKTGSERVAQQCRENIFAIQTLKDFQYIDRDGKDQGINVREKSKQLVALLKDEERLKAERAQALKTKERMAQVATGMGSNQITFGRGSSQPNLSTSHSEQEYGKAGGSPASYHGSPEASLCPQHRTGAPLGQSEELQPLSQRHPFLPHLGLASRPNGDWSQPCLTCDRAARATSPRVSSELEQARPQTSGEEELQLQLALAMSREVAEQEERLRRGDDLRLQMALEESRRDTVKIPKKKEHGSLPQQTTLLDLMDALPSSGPAAQKAEPWGPSASTNQTNPWGGPAAPASTSDPWPSFGTKPAASIDPWGVPTGATVQSVPKNSDPWAASQQPASSAGKRASDAWGAVSTTKPVSVSGSFELFSNLNGTIKDDFSEFDNLRTSKKTAESVTSLPSQNNGTTSPDPFESQPLTVASSKPSSARKTPESFLGPNAALVNLDSLVTRPAPPAQSLNPFLAPGAPATSAPVNPFQVNQPQPLTLNQLRGSPVLGTSTSFGPGPGVESMAVASMTSAAPQPALGATGSSLTPLGPAMMNMVGSVGIPPSAAQATGTTNPFLL [EPN2]	0.656	-0.0178	–	–	54.9 °C	54.6 °C
MVAYWRQAGLSYIRYSQICAKAVRDALKTEFKANAEKTSGSNVKIVKVKKE [ATP5E]	-0.106	0.368	–	–	53.2 °C	51.8 °C
MVMYARKQQRLSDGCHDRRGDSQPYQALKYSSKSHPSSGDHRHEKMRDAGDPSPPNKMLRRSDSPENKYSDSTGHSKAKNVHTHRVRERDGGTSYSPQENSHNHSALHSSNSHSSNPSNNPSKTSDAPYDSADDWSEHISSSGKKYYYNCRTEVSQWEKPKEWLEREQRQKEANKMAVNSFPKDRDYRREVMQATATSGFASGMEDKHSSDASSLLPQNILSQTSRHNDRDYRLPRAETHSSSTPVQHPIKPVVHPTATPSTVPSSPFTLQSDHQPKKSFDANGASTLSKLPTPTSSVPAQKTERKESTSGDKPVSHSCTTPSTSSASGLNPTSAPPTSASAVPVSPVPQSPIPPLLQDPNLLRQLLPALQATLQLNNSNVDISKINEVLTAAVTQASLQSIIHKFLTAGPSAFNITSLISQAAQLSTQAQPSNQSPMSLTSDASSPRSYVSPRISTPQTNTVPIKPLISTPPVSSQPKVSTPVVKQGPVSQSATQQPVTADKQQGHEPVSPRSLQRSSSQRSPSPGPNHTSNSSNASNATVVPQNSSARSTCSLTPALAAHFSENLIKHVQGWPADHAEKQASRLREEAHNMGTIHMSEICTELKNLRSLVRVCEIQATLREQRILFLRQQIKELEKLKNQNSFMV [WAC]	0.525	0.139	–	–	46.5 °C	49.9 °C
MVNPGSSSQPPPVTAGSLSWKRCAGCGGKIADRFLLYAMDSYWHSRCLKCSCCQAQLGDIGTSCYTKSGMILCRNDYIRLFGNSGACSACGQSIPASELVMRAQGNVYHLKCFTCSTCRNRLVPGDRFHYINGSLFCEHDRPTALINGHLNSLQSNPLLPDQKVC [LMO4]	-0.938	-0.0181	–	–	52.8 °C	–
MWHSVGLTLLVFVATLLIVLLLMVCGWYFVWHLFLSKFKFLRELVGDTGSQEGDHEPSGSETEEDTSSSPHRIRSARQRRAPADEGHRPLT [SMIM13]	-0.0724	-0.138	–	–	55.5 °C	–
STAT2	-0.0132	-0.0626	–	–	49.1 °C	50.9 °C
TAF6	0.14	0.046	–	–	49.1 °C	49.6 °C
TATDN3	0.608	-0.0652	–	–	56.5 °C	56.3 °C
ZNF318	-0.136	-0.0151	–	–	46.2 °C	49.2 °C
